# Measured values from publication doi:10.1101/2025.09.11.675621, “Effects of Nanopore Confinement on the Conformational, Dynamical, and Self-Assembly Properties of an FG-Repeat Peptide” (bioRxiv, 2025).
# Where two headings read alike, the source gives them in different places. Primed or numbered codes have the meaning given here. No end group written: not given here. *: point of attachment. MBPA″ = 4-maleimidobutylphosphonic acid, conjugated to the N-terminal cysteine, O=C1CC(*)C(=O)N1CCCCP(=O)(O)O; MBPA = 4-maleimidobutylphosphonic acid, O=C1CC(*)C(=O)N1CCCCP(=O)(O)O
# What was measured:
# [1] = 4° C; thermodynamic, from 7.1 mM (23 mg/ml) solutions in Bis-Tris buffer pH 6.5 (printed 0.2 mM), incubated four days with brief bath sonication once per day; centrifuged 16,000 x g 15 min, 0.1 μm filter; absorbance at 260 nm, triplicate
# Protocol: After incubation, solutions were centrifuged at 16,000 × g for 15 min, yielding visible pellets at each temperature. Supernatants were then passed through 0.1 μm centrifugal filters (Millipore Ultrafree, 0.5 ml volume) and diluted with H2O by factors of four. Peptide concentrations were determined from absorbance measurements at 260 nm, performed in triplicate, using an extinction coefficient of 1070 M^−1 cm^−1 that was determined from the absorbance of the initial solutions.
# [2] = Aggregation / fibril formation in free solution (TEM, solubility); type: physicochemical; conditions: 10 mM peptide, Bis-Tris buffer pH 6.5, after six days of incubation at 4° C, 24° C or 37° C
# Protocol: Aggregated MBPA-C-FG30 for transmission electron microscopy (TEM) was prepared by dissolving 2.0 mg of purified and lyophilized MBPA-C-FG30-LSAFTG in 60 μl of 0.2 M Bis-Tris buffer (pH 6.5) to produce a 10 mM peptide solution. The solution was evenly divided into three 20 μl aliquots, each transferred into a 0.2 ml tube. The three tubes were incubated quiescently for 6 days at temperatures of 4° C, 24° C, and 37° C. After incubation, each sample was briefly vortexed, and 3 μl was withdrawn for subsequent TEM imaging, as described below.
# Transmission electron microscope (TEM) images were acquired with an FEI Morgagni microscope, operating at 80 kV, and a side-mounted Advantage HR camera (Advanced Microscopy Techniques). TEM grids were lacey carbon on 300 mesh copper (Electron Microscopy Sciences), upon which carbon films were deposited by flotation. Solutions containing aggregated MBPA-C-FG30 were diluted 100-fold in H2O, then adsorbed in 10 μl aliquots to glow-discharged grids for 90 s. Grids were blotted, rinsed with H2O, blotted, rinsed again, blotted, and stained with 2% w/v uranyl acetate for 15 s before final blotting and drying in air.
# Figure 5: TEM images of aggregated MBPA-C-FG30, negatively stained with uranyl acetate. […]
# [3] = equilibrium solubility (centrifugation, filtration, absorbance of the supernatant at 260 nm); 7.1 mM solution in Bis-Tris buffer pH 6.5, 4 days at 4 °C with brief daily bath sonication; 16,000 x g 15 min, 0.1 um filter; monomer left over aggregates; conditions: other: equilibrium solubility (centrifugation, filtration, absorbance of the supernatant at 260 nm)
# [4] = equilibrium solubility (centrifugation, filtration, absorbance of the supernatant at 260 nm); 7.1 mM solution in Bis-Tris buffer pH 6.5, 4 days at 24 °C with brief daily bath sonication; 16,000 x g 15 min, 0.1 um filter; monomer left over aggregates; conditions: other: equilibrium solubility (centrifugation, filtration, absorbance of the supernatant at 260 nm)
# [5] = equilibrium solubility (centrifugation, filtration, absorbance of the supernatant at 260 nm); 7.1 mM solution in Bis-Tris buffer pH 6.5, 4 days at 40 °C with brief daily bath sonication; 16,000 x g 15 min, 0.1 um filter; monomer left over aggregates; conditions: other: equilibrium solubility (centrifugation, filtration, absorbance of the supernatant at 260 nm)
Molecule,equilibrium solubility [1],morphology of aggregated material (negative-stain TEM) [2],equilibrium solubility [3],equilibrium solubility [4],equilibrium solubility [5]
"MBPA-C-FG30: C-FG30 with 4-maleimidobutylphosphonic acid conjugated to the N-terminal cysteine (C(MBPA″)FGNNKLTTFGSSTTSAPSFGTTSGGLFGNK-NH2; also: uniform 15N,13C labels at L6, S11, A16, F19, T22, G28 or at G2, G10, G20, G29 (FG30 numbering))",4.5 ± 0.2 mM,"straight, unbranched assemblies",–,–,–
"C(MBPA)FGNNKLTTFGSSTTSAPSFGTTSGGLFGNK-NH2 (also: uniform 15N,13C labels at L6, S11, A16, F19, T22, G28 (LSAFTG) or G2, G10, G20, G29 (4G)) [MBPA-C-FG30]",–,–,4.5 ± 0.2 mM,1.60 ± 0.04 mM,1.92 ± 0.08 mM
